Where a chain is given by its changes, count along the chain named.
T1: mouse SEMA4D, full length, on CHO-K1 cells (CHO-K1 mSEMA4D) (mouse, UniProt O09126 24-861)
T1 construct: whole, on cells; also called murine SEMA4D recombinant cells
T1 sequence (looked up): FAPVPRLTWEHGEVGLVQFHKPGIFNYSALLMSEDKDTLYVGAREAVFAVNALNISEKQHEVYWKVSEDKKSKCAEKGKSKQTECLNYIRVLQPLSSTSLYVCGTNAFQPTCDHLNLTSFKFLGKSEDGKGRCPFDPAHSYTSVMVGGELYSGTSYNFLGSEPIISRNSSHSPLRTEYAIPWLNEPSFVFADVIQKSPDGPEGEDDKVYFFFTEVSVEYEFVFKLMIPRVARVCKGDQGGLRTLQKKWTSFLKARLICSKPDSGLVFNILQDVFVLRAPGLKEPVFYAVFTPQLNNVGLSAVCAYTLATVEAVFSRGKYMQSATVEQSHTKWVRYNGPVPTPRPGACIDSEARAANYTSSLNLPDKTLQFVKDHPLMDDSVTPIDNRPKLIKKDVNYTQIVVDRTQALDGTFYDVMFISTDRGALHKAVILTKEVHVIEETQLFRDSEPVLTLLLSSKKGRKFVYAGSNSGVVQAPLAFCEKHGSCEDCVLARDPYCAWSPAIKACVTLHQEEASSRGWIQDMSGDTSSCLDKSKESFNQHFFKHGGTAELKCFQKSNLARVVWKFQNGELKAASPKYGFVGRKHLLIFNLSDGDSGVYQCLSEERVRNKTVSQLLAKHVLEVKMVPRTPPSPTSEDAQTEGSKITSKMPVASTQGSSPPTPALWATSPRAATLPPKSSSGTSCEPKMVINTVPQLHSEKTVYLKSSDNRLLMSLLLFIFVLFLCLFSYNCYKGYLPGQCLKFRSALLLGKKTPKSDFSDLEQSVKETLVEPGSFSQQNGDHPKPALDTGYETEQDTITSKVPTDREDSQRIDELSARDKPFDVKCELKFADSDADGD

T2: hSEMA4D ECD-His (His-tagged human SEMA4D protein extracellular domain, Met22-Arg734) (human, UniProt Q92854 22-734)
T2 construct: Expressed in CHO-S cells, purified on Ni column; also called protein immunogen; immunogen A; not shown: His tag of the pCP vector
T2 sequence: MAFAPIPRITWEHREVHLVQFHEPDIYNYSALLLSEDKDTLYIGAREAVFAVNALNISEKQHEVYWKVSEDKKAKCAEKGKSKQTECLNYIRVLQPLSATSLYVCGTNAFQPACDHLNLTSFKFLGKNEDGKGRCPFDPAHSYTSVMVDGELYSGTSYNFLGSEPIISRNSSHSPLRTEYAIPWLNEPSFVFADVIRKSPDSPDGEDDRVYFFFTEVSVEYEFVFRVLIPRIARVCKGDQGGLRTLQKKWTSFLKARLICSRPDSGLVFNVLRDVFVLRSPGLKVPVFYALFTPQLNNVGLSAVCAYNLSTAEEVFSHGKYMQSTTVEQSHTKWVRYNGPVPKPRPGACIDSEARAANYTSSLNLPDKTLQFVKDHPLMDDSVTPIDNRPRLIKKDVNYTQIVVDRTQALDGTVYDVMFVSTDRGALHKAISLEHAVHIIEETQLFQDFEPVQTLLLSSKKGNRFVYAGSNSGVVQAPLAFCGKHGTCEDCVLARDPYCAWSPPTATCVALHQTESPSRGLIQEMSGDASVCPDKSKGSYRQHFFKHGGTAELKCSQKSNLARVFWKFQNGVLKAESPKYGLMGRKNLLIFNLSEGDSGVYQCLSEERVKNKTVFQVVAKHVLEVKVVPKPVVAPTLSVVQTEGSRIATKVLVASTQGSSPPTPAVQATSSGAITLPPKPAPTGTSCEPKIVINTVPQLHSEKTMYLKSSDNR

B1: 32C8F10 (antibody, V domains shown)
VH: EVQLQQSGAELVRPGASVKLSCTASGFNIKDEYIHWVKQRPEQGLEWIGWIDPANGHTEYASRFQAKATITADTSSNTAYLQLSSLTSEDTAVYYCTTGDYDGFAYWGQGTLVTVST
VL: QIVLTQSPAIMSASPGEKVTISCSARSSVSYMYWYQQKPGSSPKPWIYRTSNLASGVPARFSGSGSGTSYSLTISSMEAEDAATYYCQHYHTYPYTFGGGTKLEIK
notes: Mouse monoclonal antibody purified from hybridoma supernatant on protein A
B2: 31G10C5 (antibody, V domains shown)
VH: B1 VH with E32D, T58I, R63N, A105T
VL: B1 VL
notes: as for B1
B3: 31C11G2 (antibody, V domains shown)
VH: B1 VH with A105V
VL: B1 VL with S22F
notes: as for B1
B4: 37C4F7 (antibody, V domains shown)
VH: EFQLQQSGPEVVKPGASVKISCKASGYSFTDYNMNWMKQSKGKSLEWIGVINPNYGTTTYNQNFKGKATLTVDQSSSTAYMQLNSLTSEDSAVYYCARDMYYVYAYYTMDYWGQGTSVTVSS
VL: DVVMTQTPLSLPVSLGDQASISCRSSQSLVHSNGHTYLHWYLQRPGQSPTLLIYKVSNRFSGVPDRFSGSGSGTDFTLKISRVEAEDLGVYFCSQGTHVPWTFGGGTKLEIK
notes: as for B1
B5: 38H2E3 (antibody, V domains shown)
VH: B4 VH with N52S, N54D, G66D, R98K, Q114H
VL: B4 VL with F67V, W101R
notes: as for B1
B6: 42B7G2 (antibody, V domains shown)
VH: QVQLQQSGAELARPGASVKLSCKASGYTFTDYGISWVKQRTGQGLEWIGEIYLRNDNSYYNEKFKGKATLTADKSSNTAYMELRSLTSEDSAVYFCARWGDHGNNYEDAMDYWGQGTSVTVSS
VL: DIVLTQSPASLAMSLGKRATISCRASESVSIIGSNLIHWYQQKPGQPPKLLIYHASNLETGVPARFSGSGSRTDFTLTIDPVEEDDVAIYYCLQSRKVPYTFGGGTKLEIK
notes: as for B1
B7: 37F11F9 (antibody, V domains shown)
VH: EVQLQQSGPVLVKPGASVKMSCKASGYTFTDYYMNWVKQSHGKSLEWIGLINPYSGGSTFNQKFKAKATLTVDKSSSSAYMDLNSLTSEDSAVYYCARVGDGYYGVTHGMDYWGQGTSVTVSS
VL: DIVMTPSQKFMSTTVGDRVSITCKASQNVGTAVAWYQQKPGQSPTILIYSASNRYTGVPDRFTGSGSGTDFTLTISNMKSEDLADYFCQQYYIYPFTFAAGTKLELK
notes: as for B1

These binders were tested against T1, mouse SEMA4D, full length, on CHO-K1 … (assay: FACS, CHO-K1 mSEMA4D cells; Ab 66.7 nM).
Description: (§1) After the cells were counted, they were diluted with PBS to 2×10⁶ cells per milliliter. After washing, 100 μL of diluted and purified leading antibodies was added to each well and the plate was incubated for 1 hour on ice. […] Cells were washed 2 times by centrifugation with FACS buffer. The cells were suspended with 200 μL of FACS buffer, FACS (FACS Verse, purchased from BD) was used to detect and analyze the results.

MFI	Binder
31.7	B1
32.4	B2
31.4	B3
30	B4
30	B5
35.3	B6
31	B7

These binders were tested against T2, hSEMA4D ECD-His (His-tagged human …) (assay: ELISA, coated hSEMA4D ECD-His; Ab 0.000085 nM).
Description: (§2) First, hSEMA4D ECD-His was diluted with PBS to a final concentration of 1.0 μg/mL, and then was added to a 96-well ELISA plate, 100 μL per well, sealed with plastic film and incubated overnight at 4° C. On the next day, the plate was washed with a plate washing solution, that is, PBS buffer containing 0.05% (v/v) Tween20, for 4 times, and added with blocking solution, that is, PBS buffer containing 0.05% (v/v) Tween20 and 2% (w/w) BSA, blocked at 37° C. for 1 hour. The blocking solution was poured out and the plate was washed 4 times with the plate washing solution. 100 μL of the purified leading antibodies obtained in Examples 1 and 2 was added to each well. After incubation at 37° C. for 1 hour, the plate was washed 4 times with a plate washing solution. 100 μL of horseradish peroxidase (HRP) labeled secondary antibody (purchased from Sigma) was added at a dilution of 1:10000 to each well, and the plate was incubated at 37° C. for 1 hour, and washed 4 times with a plate washing solution. 100 μL TMB substrate was added to each well, and the plate was incubated at room temperature for 5 minutes, and added with 100 μL stop solution (1.0N HCl) to each well. A microplate reader (SpectraMax M5e, purchased from Molecular Device) was used to read the A450 nm value. […] Wherein, the data in the table was the OD450 nm value.

OD450 nm	Binder
0.0699	B1
0.0694	B2
0.0753	B3
0.0661	B4
0.0635	B5
0.0753	B6
0.0658	B7

Each binder was assayed against T3, monkey SEMA4D, full length, on CHO-K1 cells (CHO-K1 cSEMA4D) (monkey) (assay: FACS, CHO-K1 cSEMA4D cells; Ab 0.000853 nM).
T3 construct: whole, on cells; also called monkey SEMA4D recombinant cells
Description: as §1

MFI	Binder
49.7	B1
61.5	B2
81.4	B3
29	B4
26.1	B5
54.5	B6
29.5	B7

These binders were tested against T3, monkey SEMA4D, full length, on CHO-K1 … (assay: FACS, CHO-K1 cSEMA4D cells; Ab 0.0213 nM).
Description: as §1

MFI	Binder
291	B1
414	B2
422	B3
79.4	B4
69.1	B5
216	B6
103	B7

These binders were tested against T2, hSEMA4D ECD-His (His-tagged human …) (assay: ELISA, coated hSEMA4D ECD-His; Ab 6.67 nM).
Description: as §2

OD450 nm	Binder
2.32	B1
1.59	B2
1.74	B3
1.19	B4
1.46	B5
2.07	B6
1.54	B7
